In US20230167458A1, “FORSKOLIN-INDUCIBLE PROMOTERS AND HYPOXIA-INDUCIBLE PROMOTERS” (ASKLEPIOS BIOPHARMACEUTICAL, INC., priority 2020, published 2023):
“Also recorded” adds a separate entry of the source.

Tests used:
[1] = system: Huh7 human liver cell line; experiment: Luciferase expression from forskolin-inducible promoters, transient transfection of PM-RQ plasmid in Huh7; format: cell-based; set-up: luciferase activity following induction / fold induction of promoter (luciferase activity): dose or concentration left out as unconfirmed
Description: Luciferase readouts were normalised to β-galactosidase to produce normalised relative luminometer units (RLUs). β-galactosidase containing pcDNA6 plasmid was used as internal control for transfection efficiency (Thermofisher, V22020). β-galactosidase activity was measured as per manufacturer's instructions (Mammalian βGalactosidase Assay Kit, 75707/75710, Thermo Scientific) using 25 μl of lysate. 25 μl of lysate was transferred into a microplate well and mixed with 25 μl of β-galactosidase Assay Reagent, equilibrated to room temperature. The mixture was incubated at 37° C. for 30 min and absorbance measured at 405 nm.
The forskolin-inducible promoters were initially used to drive expression of luciferase in the Huh7 human liver cell line and the C2C12 […]. The promoter constructs were used to drive expression of luciferase in the PM-RQ plasmid. The tested promoters were synthesised directly upstream of the ATG of PM-RQ plasmid.
• Huh7 cells which are a human liver cell line • DPBS: without CaCl2, without MgCl2 (Gibco, 14190-094) • DMEM (Sigma, D6546) • FBS (Sigma, F9665) • Pen-Strep (Sigma, P4333) • Promega Fugene-HD (E2311) • Forskolin (Sigma, F6886) • NKH477 (Sigma, N3290) • LARII (Dual Luciferase Reporter 1000 assay system, Promega, E1980) • 48 well plates flat bottom (353230, Corning) • Trypsin-EDTA (25200-056, Gibco) • T25 & T75 flask (353108, 353136, Corning) • 15 ml Falcon tubes (430791, Corning) • Stripettes 5 ml, 10 ml and 25 ml (4101,4051,4251, Corning)
Cells were seeded onto a 48 well plate at a density of 25,000 cells/300 μl
• On the day of transfection, DNA to be transfected was diluted to a 100 ng/μl stock solution. DNA to be transfected was the RTV-017, RTV-019 or CMV-IE promoter driving luciferase in the PM-RQ plasmid. • Per 48 well transfection, 45 ng of DNA was mixed with 4.1 μl of Optimem medium. • 0.5 μl of […] was mixed with 4 μl of Optimem medium. • These 2 solutions were mixed and incubated at room temperature for 15 minutes. • The final solution was then added to the well drop wise. • 3 hrs after transfection the inducer was added to the appropriate wells at the indicated concentration. Inducer was forskolin at […].
• 24 hrs after induction, the luciferase activity was measured as described below.
• Luciferase activity was measured using LARII (Dual Luciferase Reporter 1000 assay system, Promega, E1980) • 24 hours after induction, the media was removed from the cells • The cells were washed once in 300 μl of DPBS. • Cells were lysed using 100 μl of passive lysis buffer and incubated with rocking for 15 minutes. • The cell debris was pelleted by centrifugation of the plate at max speed in a benchtop centrifuge for 1 min • For luciferase, 10 μl sample was transferred into white 96-well plate and luminescence measured by injection of 50 μl of LARII substrate
RTV-017 and RTV-019 were transiently transfected into the human liver cell line Huh7 (FIG. 2). RTV-019 was transiently transfected into the […] C2C12 (FIG. 3). The activity of the promoters was assessed using luciferase activity. The luciferase activity was measured with and without the presence of […] forskolin.

[2] = system: HEK293-F; experiment: Luciferase time course after forskolin induction, transient transfection of suspension HEK293-F; format: cell-based, human; settings: 20 µM forskolin
Description: The tested promoters were synthesised directly upstream of the ATG of PM-RQ plasmid and the suspension cell lines were transiently transfected with the PM-RQ plasmid.
40 ml of cells were grown in a 250 ml vented Erlenmeyer flask (Sigma-Aldrich CLS431144) at 37° C., 20% O2, 8% CO2 with agitation at 100 rpm. Cells were seeded as described in the manufacturer's instructions (300,000 cells/ml). HEK293-F were obtained from Thermofisher, R79007.
One day before transfection, the cells were counted using a haemocytometer and split to 500,000 cells/ml.
On the day of transfection, the cells are seeded to 1,000,000 cells/ml in 500 μl of appropriate medium (Freestyle 293 expression medium, 12338002) in a 24 well plate. […] of DNA per well was then added to 10 μl of OptiMem medium (Thermofisher; 11058021) and incubated for 5 minutes at room temperature.
Concurrently, 0.625 μl of Max reagent (Thermofisher, 16447100) was made up to 10 μl by addition of OptiMem and incubated for 5 minutes at room temperature. After this incubation, both mixes were added to the same tube and incubated at room temperature for 25-30 minutes. […]
24 hours after transfection, the promoters were induced by addition of […] forskolin and luciferase activity was measured 0, 3, 5 and 24 hours after induction. Luciferase activity was measured as previously described.

B1: RTV-019: synthetic forskolin-inducible promoter, SEQ ID NO: 44; 3× ATF6, 4× AP1(1) and 3× HRE1 TFBS and CMV-MP (nucleic acid)
DNA: TGACGTGCTGATGATGCGTAGCTAGTAGTTGACGTGCTGATGATGCGTAGCTAGTAGTTGACGTGCTGATGATGCGTAGCTAGTAGTTGAGTCAGATGATGCGTAGCTAGTAGTTGAGTCAGATGATGCGTAGCTAGTAGTTGAGTCAGATGATGCGTAGCTAGTAGTTGAGTCAGATGATGCGTAGCTAGTAGTCTGCACGTAGATGATGCGTAGCTAGTAGTCTGCACGTAGATGATGCGTAGCTAGTAGTCTGCACGTAGATGATGCGTAGCTAGTAGTGCAGTTAGCGTAGCTGAGGTACCGTCGACGATATCGGATCCAGGTCTATATAAGCAGAGCTCGTTTAGTGAACCGTCAGATCGCCTAGATACGCCATCCACGCTGTTTTGACCTCCATAGAAGATCGCCACC
modifications: Synp-RTV-019
notes: 3× ATF6, 4× AP1(1) and 3× HRE1 TFBS and CMV-MP
luciferase activity without induction (background) ([1]; Huh7, before addition of forskolin): low background activity
luciferase activity following induction ([1]; Huh7, forskolin): high activity; also recorded: much higher activity
fold induction of promoter (luciferase activity) ([1]; Huh7 liver cells, PM-RQ plasmid, forskolin, 24 hrs after induction): 24 fold
relative rank of promoter (fold induction/strength) [2]: strongest
